This note sets out measurements from publication PMC8360603.

The target of the test is DDB1/DCAF1 C-terminal domain complex (UniProt Q16531).
Chain of UniProt Q16531 (Q16531 whole entry, chain 1 of 2, the tested form may be a part): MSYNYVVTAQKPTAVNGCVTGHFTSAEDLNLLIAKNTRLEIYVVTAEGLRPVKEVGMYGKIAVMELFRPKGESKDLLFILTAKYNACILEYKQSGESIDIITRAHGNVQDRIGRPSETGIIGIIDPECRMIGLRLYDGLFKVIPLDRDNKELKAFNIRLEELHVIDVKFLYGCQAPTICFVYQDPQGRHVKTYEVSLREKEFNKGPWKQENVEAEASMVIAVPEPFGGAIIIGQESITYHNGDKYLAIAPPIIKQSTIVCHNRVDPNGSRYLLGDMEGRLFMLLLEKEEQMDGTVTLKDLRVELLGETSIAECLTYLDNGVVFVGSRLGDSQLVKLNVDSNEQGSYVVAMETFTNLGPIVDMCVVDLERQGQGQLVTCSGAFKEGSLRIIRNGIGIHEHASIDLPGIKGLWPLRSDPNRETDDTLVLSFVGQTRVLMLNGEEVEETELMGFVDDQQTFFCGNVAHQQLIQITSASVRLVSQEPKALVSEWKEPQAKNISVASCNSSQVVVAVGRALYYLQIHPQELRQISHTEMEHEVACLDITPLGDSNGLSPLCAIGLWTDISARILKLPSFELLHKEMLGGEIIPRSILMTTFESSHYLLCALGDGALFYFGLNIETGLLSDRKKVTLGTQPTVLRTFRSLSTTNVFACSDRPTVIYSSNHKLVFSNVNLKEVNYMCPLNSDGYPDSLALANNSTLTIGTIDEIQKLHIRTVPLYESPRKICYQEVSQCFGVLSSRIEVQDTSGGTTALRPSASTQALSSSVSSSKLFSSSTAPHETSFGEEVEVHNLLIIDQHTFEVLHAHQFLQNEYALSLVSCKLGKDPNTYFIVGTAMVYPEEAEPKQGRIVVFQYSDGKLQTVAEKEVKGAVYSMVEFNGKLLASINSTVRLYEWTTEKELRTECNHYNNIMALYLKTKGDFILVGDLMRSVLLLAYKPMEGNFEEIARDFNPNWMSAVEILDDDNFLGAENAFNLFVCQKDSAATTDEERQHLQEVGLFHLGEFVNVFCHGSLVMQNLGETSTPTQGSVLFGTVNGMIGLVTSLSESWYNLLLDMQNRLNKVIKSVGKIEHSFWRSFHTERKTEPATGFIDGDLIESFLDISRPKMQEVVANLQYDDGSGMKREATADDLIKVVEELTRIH
Chain of UniProt Q16531 (Q9Y4B6 1046-1396, chain 2 of 2, further chain): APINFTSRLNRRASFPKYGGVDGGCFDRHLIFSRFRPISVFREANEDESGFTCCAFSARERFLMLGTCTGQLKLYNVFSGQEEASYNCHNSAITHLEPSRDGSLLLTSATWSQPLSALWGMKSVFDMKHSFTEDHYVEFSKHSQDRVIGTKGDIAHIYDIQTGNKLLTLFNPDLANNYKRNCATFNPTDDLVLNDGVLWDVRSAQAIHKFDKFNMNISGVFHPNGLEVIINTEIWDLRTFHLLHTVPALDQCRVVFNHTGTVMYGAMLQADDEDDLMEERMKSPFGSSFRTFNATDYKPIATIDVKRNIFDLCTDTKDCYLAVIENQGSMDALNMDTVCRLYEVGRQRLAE

T4L-SAMHD1-CtD (domain or fragment) returned an in vitro ubiquitylation of T4L-SAMHD1-CtD by CRL4^DCAF1-CtD (UBA1, UBCH5C, ubiquitin, ATP) with HisSUMO-T4L-Vprmus (1-92), 0-15 min, SDS-PAGE; loss of the unmodified band of over 90%.
